Test results taken from US7951562B2, “Method for glycosylating hydroxylysine residues in polypeptides or peptides” (Oulun Yliopisto, priority 2000, dated 2011).

B1: LH2a: recombinant human lysyl hydroxylase isoform 2, alternatively spliced form a (protein)
chain: ADSEKPSSIPTDKLLVITVATKESDGFHRFMQSAKYFNYTVKVLGQGEEWRGGDGINSIGGGQKVRLMKEVMEHYADQDDLVVMFTECFDVIFAGGPEEVLKKFQKANHKVVFAADGILWPDKRLADKYPVVHIGKRYLNSGGFIGYAPYVNRIVQQWNLQDNDDDQLFYTKVYIDPLKREAINITLDHKCKIFQTLNGAVDEVVLKFENGKARAKNTFYETLPVAINGNGPTKILLNYFGNYVPNSWTQDNGCTLCEFDTVDLSAVDVHPNVSIGVFIEQPTPFLPRFLDILLTLDYPKEALKLFIHNKEVYHEKDIKVFFDKAKHEIKTIKIVGPEENLSQAEARNMGMDFCRQDEKCDYYFSVDADVVLTNPRTLKILIEQNRKIIAPLVTRHGKLWSNFWGALSPDGYYARSEDYVDIVQGNRVGVWNVPYMANVYLIKGKTLRSEMNERNYFVRDKLDPDMALCRNAREMGVFMYISNRHEFGRLLSTANYNTSHYNNDLWQIFENPVDWKEKYINRDYSKIFTENIVEQPCPDVFWFPIFSEKACDELVEEMEHYGKWSGGKHHDSRISGGYENVPTDDIHMKQVDLENVWLDFIREFIAPVTLKVFAGYYTKGFALLNFVVKYSPERQRSLRPHHDASTFTINIALNNVGEDFQGGGCKFLRYNCSIESPRKGWSFMHPGRLTHLHEGLPVKNGTRYIAVSFIDP
modifications: left off: small tags and cut ends
notes: recombinant human lysyl hydroxylase isoform 2, alternatively spliced form a
B2: Mutation 2: human LH3 mutant, amino acids 25-520 normal, amino acids 521-738 missing (protein, listed as Homo sapiens)
chain: SDRPRGRDPVNPEKLLVITVATAETEGYLRFLRSAEFFNYTVRTLGLGEEWRGGDVARTVGGGQKVRWLKKEMEKYADREDMIIMFVDSYDVILAGSPTELLKKFVQSGSRLLFSAESFCWPEWGLAEQYPEVGTGKRFLNSGGFIGFATTIHQIVRQWKYKDDDDDQLFYTRLYLDPGLREKLSLNLDHKSRIFQNLNGALDEVVLKFDRNRVRIRNVAYDTLPIVVHGNGPTKLQLNYLGNYVPNGWTPEGGCGFCNQDRRTLPGGQPPPRVFLAVFVEQPTPFLPRFLQRLLLLDYPPDRVTLFLHNNEVFHEPHIADSWPQLQDHFSAVKLVGPEEALSPGEARDMAMDLCRQDPECEFYFSLDADAVLTNLQTLRILIEENRKVIAPMLSRHGKLWSNFWGALSPDEYYARSEDYVELVQRKRVGVWNVPYISQAYVIRGDTLRMELPQRDVFSGSDTDPDMAFCKSFRDKGIFLHLSNQHEFGRLLATSR
B3: Mutation 1: human LH3 mutant, amino acids 25-231 normal, amino acids 232-356 modified (frame shift) (protein, listed as Homo sapiens)
chain: SDRPRGRDPVNPEKLLVITVATAETEGYLRFLRSAEFFNYTVRTLGLGEEWRGGDVARTVGGGQKVRWLKKEMEKYADREDMIIMFVDSYDVILAGSPTELLKKFVQSGSRLLFSAESFCWPEWGLAEQYPEVGTGKRFLNSGGFIGFATTIHQIVRQWKYKDDDDDQLFYTRLYLDPGLREKLSLNLDHKSRIFQNLNGALDEVVLSLIGTVCVSGTWPTTRSPLWSMETVPLSCSSTTWETTSPMAGLLREAVASATRTGGHSRGGSLPPGCFWPCLWNSLLRFCPASCSGCYSWTIPPTGSPFSCTTTRSSMNPTSLTPGRSSRTTSQL
B4: LH1: recombinant human lysyl hydroxylase isoform 1, His-tagged (protein, listed as Homo sapiens)
chain: MRPLLLLALLGWLLLAEAKGDAKPEDNLLVLTVATKETEGFRRFKRSAQFFNYKIQALGLGEDWNVEKGTSAGGGQKVRLLKKALEKHADKEDLVILFTDSYDVLFASGPRELLKKFRQARSQVVFSAEELIYPDRRLETKYPVVSDGKRFLGSGGFIGYAPNLSKLVAEWEGQDSDSDQLFYTKIFLDPEKREQINITLDHRCRIFQNLDGALDEVVLKFEMGHVRARNLAYDTLPVLIHGNGPTKLQLNYLGNYIPRFWTFETGCTVCDEGLRSLKGIGDEALPTVLVGVFIEQPTPFVSLFFQRLLRLHYPQKHMRLFIHNHEQHHKAQVEEFLAQHGSEYQSVKLVGPEVRMANADARNMGADLCRQDRSCTYYFSVDADVALTEPNSLRLLIQQNKNVIAPLMTRHGRLWSNFWGALSADGYYARSEDYVDIVQGRRVGVWNVPYISNIYLIKGSALRGELQSSDLFHHSKLDPDMAFCANIRQQDVFMFLTNRHTLGHLLSLDSYRTTHLHNDLWEVFSNPEDWKEKYIHQNYTKALAGKLVETPCPDVYWFPIFTEVACDELVEEMEHFGQWSLGNNKDNRIQGGYENVPTIDIHMNQIGFEREWHKFLLEYIAPMTEKLYPGYYTRAQFDLAFVVRYKPDEQPSLMPHHDASTFTINIALNRVGVDYEGGGCRFLRYNCSIRAPRKGWTLMHPGRLTHYHEGLPTTRGTRYIAVSFVDP
modifications: His6 tag
notes: recombinant human lysyl hydroxylase isoform 1, His-tagged
B5: Mutation 4: human LH3 mutant, amino acids 25-668 normal, amino acids 669-698 modified (protein, listed as Homo sapiens)
chain: SDRPRGRDPVNPEKLLVITVATAETEGYLRFLRSAEFFNYTVRTLGLGEEWRGGDVARTVGGGQKVRWLKKEMEKYADREDMIIMFVDSYDVILAGSPTELLKKFVQSGSRLLFSAESFCWPEWGLAEQYPEVGTGKRFLNSGGFIGFATTIHQIVRQWKYKDDDDDQLFYTRLYLDPGLREKLSLNLDHKSRIFQNLNGALDEVVLKFDRNRVRIRNVAYDTLPIVVHGNGPTKLQLNYLGNYVPNGWTPEGGCGFCNQDRRTLPGGQPPPRVFLAVFVEQPTPFLPRFLQRLLLLDYPPDRVTLFLHNNEVFHEPHIADSWPQLQDHFSAVKLVGPEEALSPGEARDMAMDLCRQDPECEFYFSLDADAVLTNLQTLRILIEENRKVIAPMLSRHGKLWSNFWGALSPDEYYARSEDYVELVQRKRVGVWNVPYISQAYVIRGDTLRMELPQRDVFSGSDTDPDMAFCKSFRDKGIFLHLSNQHEFGRLLATSRYDTEHLHPDLWQIFDNPVDWKEQYIHENYSRALEGEGIVEQPCPDVYWFPLLSEQMCDELVAEMEHYGQWSGGRHEDSRLAGGYENVPTVDIHMKQVGYEDQWLQLLRTYVGPMTESLFPGYHTKARAVMNFVVRYRPDEQPSLRPHHAHPPSPSTLPSTTRAWTMREVAAASCATTV

Assays:
Assay type in all cases: biochemical
[1] = test system: hydroxylysyl residues in a calf skin gelatin substrate; assay: GT (galactosyltransferase) activity of recombinant proteins expressed in E. coli; settings: E. coli cell supernatant, FIG. 12
Excerpt: The galactosyltransferase activity can be assayed as described in Myllylä et al. (1975). The method is based on the transfer of radioactively (tritium) labelled galactose from UDP-galactose to hydroxylysyl residues in calf skin gelatin substrate and on the specific assay of the product of the enzyme reaction after alkaline hydrolysis.

[2] = test system: synthetic peptide IKGIKGIKG; assay: LH activity of human LH isoforms expressed in E. coli; settings: E. coli expression system, data not shown
Excerpt: (§1) The lysyl hydroxylase activity can be assayed by a method based on the hydroxylation-coupled decarboxylation of 2-oxo(1-^14C)glutarate (Kivirikko and Myllylä 1982), synthetic peptide […] was used as a substrate.
PFastBacI constructs for human LH1, LH2a, LH2b and LH3 were cleaved with BamHI and Hind III restriction enzymes and coding regions were subcloned into same site in E. coli expression vector pQE30 containing (His)6 tag at the amino terminus. Insert for C. elegans LH (corresponding to amino acids 14-730 in cDNA) was generated by PCR and ligated into SacI-PstI site of pOE30 vector. Constructs were transformed into E. coli XL1-Blue strain. Cultures were grown to OD600 of 0.6 at 37° C. Protein expression was induced by adding 1 mM IPTG and incubation was proceed at 30° C. for 5 hours. Cells were harvested and stored at −20° C. For activity measurements cell pellet was suspended to lysis buffer (0.4 M NaCl, 0.5% Nonident and 20 mM Tris-HCl pH 7.8, at 20° C.) and incubated in the presence of lysozyme (50 μg/ml), DNAase (10 μg/ml) and RNAase (10 μg g/ml) at room temperature for 30 minutes. Lysis was completed by sonication. Cell debris was pelleted and supernatant was used in the measurements.

[3] = test system: hydroxylysyl residues in a calf skin gelatin substrate; assay: GT activity of recombinant proteins expressed with baculovirus vector in Sf9 cells; settings: baculovirus vector in insect cells, not shown
Procedure: Baculovirus transfer vector pFastBacI in the BAC-TO-BAC™ expression system was used to produce LH3 protein in Sf9 cells. The cDNA construct is in Example 1. The recombinant protein contains the His tag at the amino terminus after signal peptide cleavage. The cells were homogenized as described elsewhere (Valtavaara et al. 1997).
GT and GGT activities were measured by a method based on the transfer of radioactively (tritium)-labeled sugar from UDP-sugar to hydroxylysyl or galactosylhydroxylysyl residues in a calf skin gelatin substrate, respectively (Myllylä et al. 1975). The specific detection of the reaction products was performed after alkaline hydrolysis.

[4] = test system: galactosylhydroxylysyl residues in calf skin gelatin substrate; assay: GGT (glucosyltransferase) activity of recombinant proteins expressed in Sf9 insect cells; settings: for GGT activity in cell lysates: Sf9 cells, 72 hours after infection; for GGT activity, Dpm/plate: Sf9 cells transfected by LH3 constructs; for GGT activity, %: relative to nonmutated LH3 construct
Excerpt: The glucosyltransferase activity can be assayed as described in Myllylä et al. (1975). The method is based on the transfer of radioactively (tritium) labelled glucose from UDP-glucose to galactosylhydroxylysyl residues in calf skin gelatin substrate and on the specific assay of the product of the enzyme reaction after alkaline hydrolysis.
(§2) Commercially available baculovirus transfer vector pFastBacI in the BAC-TO-BAC™ expression system (Life technologies, Inc.) was modified to contain human LH1 signal peptide (Hautala et al., 1992) and His6 tag, and BamHI restriction site for insertion of the desired cDNA, nucleotides 289-2455 of LH3 cDNA (SEQ ID NO 6) (Valtavaara et al., 1998). The construct was confirmed by sequencing. The recombinant protein contains His tag at the amino-terminus after signal peptide cleavage. Insect cells were harvested 0-72 hours after infection and homogenized according to the protocol described earlier (Valtavaara et al., 1997).
Human LH1 signal peptide and His6 tag was inserted to the cDNA constructs of LH1 and LH2. The baculovirus transfer vector pFastBacI was modified so that human LH1 signal sequence followed by nine nucleotides of the amino-terminal end was ligated to the His6 tag followed by nucleotides for BamHI restriction site. The human cDNA sequence (LH1 or LH2) (SEQ ID NO 21, 23 and 25) starting from the likely amino-terminal end of the molecule was ligated to the BamHI site of the construct. Two expression constructs were generated for LH2, LH2a and LH2b (SEQ ID NO 23 and 25), both of them covered the nucleotides from 76 to 2267 (Valtavaara et al., 1997). The LH2b construct contained also the alternatively spliced exon sequence (Valtavaara 1999; Yeowell and Walker, 1999) between nucleotides 1500 and 1501 (SEQ ID NO 25). The constructs were confirmed by sequencing. Insect cells were grown and homogenized as described above.
(§3) LH activity was assayed by a method based on the hydroxylation-coupled decarboxylation of 2-oxo(1-^14C)glutarate (Kivirikko and Myllylä 1982), synthetic peptide […] was used as a substrate. GGT activity was assayed as described elsewhere (Myllylä et al. 1975). The method is based on the transfer of radioactively (tritium) labelled glucose from UDP-glucose to galactosylhydroxylysyl residues in calf skin gelatin substrate and on the specific assay of the product of the enzyme reaction after alkaline hydrolysis.

[5] = test system: synthetic peptide IKGIKGIKG; assay: LH (lysyl hydroxylase) activity of LH3 constructs expressed in Sf9 cells; settings: for LH3 activity, Dpm/plate: Sf9 cells transfected by LH3 constructs; for LH3 activity, %: relative to nonmutated LH3 construct
Excerpt: as §1, §2, §3

| Molecule | generation of GT activity [1] | LH activity [2] | generation of GT activity [3] | GGT activity in cell lysates [4] | LH3 activity, Dpm/plate [5] | LH3 activity, % [5] | GGT activity, Dpm/plate [4] | GGT activity, % [4] |
| --- | --- | --- | --- | --- | --- | --- | --- | --- |
| B1 | LH3 was the only one being able to generate GT activity | no LH activity can be found | did not generated GT activity | none of these recombinant proteins had detectable GGT activity | – | – | – | – |
| B2 | – | – | – | – | <300 Dpm/plate | <5% | 180000 Dpm/plate | 23% |
| B3 | – | – | – | – | <300 Dpm/plate | <5% | 650 Dpm/plate | 0.1% |
| B4 | LH3 was the only one being able to generate GT activity | no LH activity can be found | did not generated GT activity | none of these recombinant proteins had detectable GGT activity | – | – | – | – |
| B5 | – | – | – | – | <300 Dpm/plate | <5% | 360000 Dpm/plate | 47% |
